Results taken from paper doi:10.1101/2024.12.13.628329 (bioRxiv, 2024).

Biological target: the molecule itself
Assay: SEC

B1: TNFR1^R347A death domain (domain or fragment, UniProt P19438 356-441, looked up)
chain: PATLYAVVENVPPLRWKEFVARLGLSDHEIDRLELQNGRCLREAQYSMLATWRRRTPRREATLELLGRVLRDMDLLGCLEDIEEAL
  stoichiometry N: 2
